Paper PMC8533642 (Journal of medicinal chemistry, 2021)
Square brackets hold non-standard residues; d marks the D form. dPhe(4-I) = N[C@H](Cc1ccc(I)cc1)C(=O)O; 2Nal = N[C@@H](Cc1ccc2ccccc2c1)C(=O)O; d2Nal = N[C@H](Cc1ccc2ccccc2c1)C(=O)O

How the values were obtained:
[1] = target: mouse melanocortin-3 receptor (mouse) (UniProt P33033)
[2] = target: mouse melanocortin-4 receptor (mouse) (UniProt P56450)
[3] = target: mouse melanocortin-3 receptor (mouse) (UniProt P33033); remark: listed apart in the source
[4] = target: mouse melanocortin-4 receptor (mouse) (UniProt P56450); remark: listed apart in the source
[5] = target: mouse melanocortin-5 receptor (mouse) (UniProt P41149)
[6] = target: mouse melanocortin-1 receptor (mouse) (UniProt Q01727)
mouse melanocortin-1 receptor (mouse), sequence (Q01727 whole entry): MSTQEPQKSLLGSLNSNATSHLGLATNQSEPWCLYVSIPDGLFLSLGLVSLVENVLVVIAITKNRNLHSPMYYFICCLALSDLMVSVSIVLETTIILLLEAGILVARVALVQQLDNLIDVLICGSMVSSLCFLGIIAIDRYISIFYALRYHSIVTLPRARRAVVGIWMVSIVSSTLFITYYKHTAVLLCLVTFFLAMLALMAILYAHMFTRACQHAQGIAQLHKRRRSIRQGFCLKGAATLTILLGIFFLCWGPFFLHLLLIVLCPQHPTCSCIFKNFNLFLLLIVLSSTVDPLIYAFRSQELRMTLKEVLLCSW

mouse melanocortin-4 receptor (mouse), sequence (P56450 whole entry): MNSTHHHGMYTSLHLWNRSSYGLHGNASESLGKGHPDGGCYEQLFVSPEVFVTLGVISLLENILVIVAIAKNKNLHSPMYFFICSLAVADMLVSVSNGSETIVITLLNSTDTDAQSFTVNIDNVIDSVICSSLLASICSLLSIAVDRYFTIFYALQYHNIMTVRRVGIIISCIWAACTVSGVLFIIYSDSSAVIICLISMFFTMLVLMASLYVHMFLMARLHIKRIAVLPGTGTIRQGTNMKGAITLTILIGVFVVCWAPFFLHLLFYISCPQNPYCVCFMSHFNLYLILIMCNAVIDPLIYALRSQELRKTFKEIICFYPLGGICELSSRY
mouse melanocortin-3 receptor (mouse), sequence (P33033 whole entry): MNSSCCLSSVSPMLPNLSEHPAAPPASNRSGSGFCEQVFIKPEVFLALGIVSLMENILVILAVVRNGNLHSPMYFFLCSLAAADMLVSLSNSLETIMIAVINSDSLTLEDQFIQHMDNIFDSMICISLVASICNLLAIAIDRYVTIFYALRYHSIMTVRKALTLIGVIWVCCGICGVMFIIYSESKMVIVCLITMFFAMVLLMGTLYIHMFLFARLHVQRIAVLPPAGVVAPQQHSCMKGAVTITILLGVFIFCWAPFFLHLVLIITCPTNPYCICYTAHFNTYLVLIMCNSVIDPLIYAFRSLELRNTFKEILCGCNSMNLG
mouse melanocortin-5 receptor (mouse), sequence (P41149 whole entry): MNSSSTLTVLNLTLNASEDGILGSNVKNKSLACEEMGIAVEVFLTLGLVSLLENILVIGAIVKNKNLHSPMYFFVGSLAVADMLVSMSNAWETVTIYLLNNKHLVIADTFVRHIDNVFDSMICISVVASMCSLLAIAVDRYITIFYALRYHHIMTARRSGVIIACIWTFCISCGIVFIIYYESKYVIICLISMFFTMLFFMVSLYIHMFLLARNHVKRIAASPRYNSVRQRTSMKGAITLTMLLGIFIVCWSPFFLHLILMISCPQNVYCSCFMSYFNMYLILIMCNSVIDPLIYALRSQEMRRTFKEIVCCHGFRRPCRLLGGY

Substance | pA2, antagonism of NDP-MSH at mMC3R, Schild analysis, cAMP AlphaScreen [1] | pA2, antagonism of NDP-MSH at mMC4R, Schild analysis, cAMP AlphaScreen [2] | % of maximal NDP-MSH response at 100 μM, cAMP AlphaScreen [3] [%] | % of maximal NDP-MSH response at 100 μM, cAMP AlphaScreen [4] [%] | % of maximal NDP-MSH response at 100 μM, cAMP AlphaScreen [5] [%] | agonist EC50, cAMP AlphaScreen [6] [µM] | agonist EC50, cAMP AlphaScreen [3] [µM] | agonist EC50, cAMP AlphaScreen [4] [µM] | agonist EC50, cAMP AlphaScreen [5] [µM] | % of maximal NDP-MSH response at 100 μM, cAMP AlphaScreen [6] [%]
Ac-DPhe(pI)-Arg-DPhe(pI)-DNal(2’)-NH2 (peptide) | 6.3 | 6.6 | 40 | 40 | 65 | 1.1 | – | – | – | –
Ac-DPhe(pI)-DNal(2’)-DNal(2’)-Arg-NH2 (peptide) | – | – | – | – | – | > 100 | > 100 | > 100 | 0.23 | –
Ac-DPhe(pI)-DNal(2’)-DNal(2’)-DLys-NH2 (peptide) | – | 6.3 | – | – | – | – | > 100 | > 100 | > 100 | 35
Ac-DPhe(pI)-DNal(2’)-DPhe(pI)-Arg-NH2 (peptide) | – | – | – | – | – | – | > 100 | > 100 | 0.13 | 40
Ac-DPhe(pI)-DNal(2’)-DPhe(pI)-DLys-NH2 (peptide) | – | – | – | – | – | > 100 | > 100 | > 100 | > 100 | –
Ac-DPhe(pI)-DNal(2’)-Nal(2’)-Arg-NH2 (peptide) | – | 5.8 | – | – | – | – | > 100 | > 100 | 0.8 | 20
Ac-DPhe(pI)-DNal(2’)-Nal(2’)-DLys-NH2 (peptide) | – | – | 20 | – | 50 | – | – | > 100 | – | 40
Ac-DPhe(pI)-DNal(2’)-Trp-Arg-NH2 (peptide) | – | 5.6 | – | – | – | > 100 | > 100 | > 100 | > 100 | –
Ac-DPhe(pI)-DNal(2’)-Trp-DLys-NH2 (peptide) | 5.7 | 6.6 | – | – | – | – | > 100 | > 100 | > 100 | 65
Ac-Phe(pI)-Nal(2’)-Phe(pI)-Arg-NH2 (peptide) | – | – | – | – | – | – | – | – | – | 60
Ac-[d2Nal]RWR-NH2 | 6.8 | 8.3 | – | 20 | – | – | > 100 | – | > 100 | 40
Ac-[d2Nal]RW[d2Nal]-NH2 | 5.7 | – | 40 | 30 | – | – | – | – | > 100 | 40
Ac-[d2Nal]RW[dK]-NH2 | 5.5 | 7.7 | – | – | – | > 100 | > 100 | > 100 | > 100 | –
Ac-[d2Nal]R[2Nal]R-NH2 | – | 8.8 | – | 30 | – | > 100 | > 100 | – | > 100 | –
Ac-[dPhe(4-I)]RW[d2Nal]-NH2 | – | 7.6 | 25 | 35 | – | – | – | – | > 100 | 45
Ac-[dPhe(4-I)]R[2Nal][d2Nal]-NH2 | – | 6.7 | – | – | – | – | > 100 | > 100 | > 100 | 55
Ac-[dPhe(4-I)]R[2Nal][dK]-NH2 | 6.8 | – | – | – | – | > 100 | > 100 | > 100 | > 100 | –
